Measurements reported in the supplement of paper PMC12783771.
± gives the standard deviation of the averaged measurements.

B1: library; a variant is named by its letters at X, in order (parent)
chain: MNIQIGELAKRTACPVVTIRFYEQEGLLPPPGRSRGNFRLYGEEHVERLQFIRHCRSLDMPLSXVRTLLSYRKRPDQDCGEVXMLLDEHXRQVESRIGALLELXHXLVELREACSGARPAQSCGILQGLSDCVCDTRGTTAHXSD

Variants of: B1
Experiment: sfGFP reporter fluorescence (15 h) (µM FITC); higher = higher leak
Conditions: library round: Round 3b; ligand: none
Description: (§1)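 Cell-free biosensing: 1 µL Echo-assembled CFE reactions with linear PbrR variant templates (5 nM) and pPbrR-sfGFP reporter, with 1 µM Pb, 30 µM Zn or no ligand; endpoint sfGFP fluorescence after 15 h at 30 °C calibrated as µM FITC. Round 3b rational combinatorial PbrR mutants; 3 biological replicates.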
Work on KIAKEP yielded a sfGFP reporter fluorescence of 0.052 ± 0.0034. Work on KIAKER yielded a sfGFP reporter fluorescence of 0.0554 ± 0.0012. Work on KIAKET yielded a sfGFP reporter fluorescence of 0.0531 ± 0.0032. Variant KIATHT has a sfGFP reporter fluorescence of 0.0743 ± 0.0012. With KIATHR the sfGFP reporter fluorescence was 0.0655 ± 0.0015. Work on KIATHP yielded a sfGFP reporter fluorescence of 0.07594 ± 0.00067. DFAKAR gave a sfGFP reporter fluorescence of 0.0429 ± 0.0064. For DFAKAT, the sfGFP reporter fluorescence was 0.0421 ± 0.0041. DNAVAT gave a sfGFP reporter fluorescence of 0.0419 ± 0.0015. For DNAVAR, the sfGFP reporter fluorescence was 0.0458 ± 0.0027. Variant KIITHT has a sfGFP reporter fluorescence of 0.0492 ± 0.0029. In the case of KIITHR, the sfGFP reporter fluorescence is reported as 0.0506 ± 0.0028. KIIVHT showed a sfGFP reporter fluorescence of 0.053 ± 0.0034. For KNIVAT, the sfGFP reporter fluorescence was 0.092 ± 0.0023. Variant KNATHR has a sfGFP reporter fluorescence of 0.0571 ± 0.0019. Work on KNATHT yielded a sfGFP reporter fluorescence of 0.0681 ± 0.0016. DFAVEP showed a sfGFP reporter fluorescence of 0.0418 ± 0.0019. Variant DFAVET has a sfGFP reporter fluorescence of 0.0447 ± 0.00067. DFAVER gave a sfGFP reporter fluorescence of 0.0402 ± 0.0024. Variant DFIVAT has a sfGFP reporter fluorescence of 0.0456 ± 0.0052. In the case of DIAKAR, the sfGFP reporter fluorescence is reported as 0.0442 ± 0.0031. Variant DIAKAT has a sfGFP reporter fluorescence of 0.0356 ± 0.0029. For DIITET, the sfGFP reporter fluorescence was 0.0436 ± 0.0034. Variant DIITER has a sfGFP reporter fluorescence of 0.0474 ± 0.0038. For KNATER, the sfGFP reporter fluorescence was 0.0529 ± 0.0011. Variant KNATEP has a sfGFP reporter fluorescence of 0.0501 ± 0.0039. Work on KNATET yielded a sfGFP reporter fluorescence of 0.055 ± 0.0007. In the case of DIATAR, the sfGFP reporter fluorescence is reported as 0.0427 ± 0.0029. In the case of DIATAP, the sfGFP reporter fluorescence is reported as 0.0413 ± 0.0051. In the case of DIATAT, the sfGFP reporter fluorescence is reported as 0.0409 ± 0.0016. Work on KIITAT yielded a sfGFP reporter fluorescence of 0.0466 ± 0.0011. Variant KIITAP has a sfGFP reporter fluorescence of 0.0473 ± 0.0044. KFIVET showed a sfGFP reporter fluorescence of 0.0511 ± 0.0019. With KFIVER the sfGFP reporter fluorescence was 0.0558 ± 0.0015. KFIVEP gave a sfGFP reporter fluorescence of 0.0475 ± 0.004. In the case of KFAVHT, the sfGFP reporter fluorescence is reported as 0.0459 ± 0.0029. With KFAVHP the sfGFP reporter fluorescence was 0.0477 ± 0.002. KFAVHR showed a sfGFP reporter fluorescence of 0.0469 ± 0.0029. Work on KFIVHT yielded a sfGFP reporter fluorescence of 0.0536 ± 0.0065. Variant KNITAT has a sfGFP reporter fluorescence of 0.0655 ± 0.0027. KNITAR showed a sfGFP reporter fluorescence of 0.0701 ± 0.0068. KIAVER gave a sfGFP reporter fluorescence of 0.0626 ± 0.0036. In the case of KIAVET, the sfGFP reporter fluorescence is reported as 0.0672 ± 0.0059. KIAVEP gave a sfGFP reporter fluorescence of 0.0654 ± 0.0022.

Variants of: B1
Experiment: sfGFP reporter fluorescence (15 h) (µM FITC); higher = stronger transcriptional activation
Conditions: library round: Round 3b; ligand: 1 µM Pb
Description: as §1
In the case of KIAKEP, the sfGFP reporter fluorescence is reported as 0.387 ± 0.02. Variant KIAKER has a sfGFP reporter fluorescence of 0.614 ± 0.024. With KIAKET the sfGFP reporter fluorescence was 0.4674 ± 0.0044. With KIATHT the sfGFP reporter fluorescence was 1.3 ± 0.031. KIATHR gave a sfGFP reporter fluorescence of 1.19 ± 0.2. With KIATHP the sfGFP reporter fluorescence was 1.34 ± 0.049. DFAKAR showed a sfGFP reporter fluorescence of 0.0535 ± 0.005. Work on DFAKAT yielded a sfGFP reporter fluorescence of 0.0502 ± 0.0044. Variant DNAVAT has a sfGFP reporter fluorescence of 0.0454 ± 0.0015. With DNAVAR the sfGFP reporter fluorescence was 0.0485 ± 0.0025. KIITHT showed a sfGFP reporter fluorescence of 0.471 ± 0.031. For KIITHR, the sfGFP reporter fluorescence was 0.485 ± 0.067. Variant KIIVHT has a sfGFP reporter fluorescence of 0.673 ± 0.034. KNIVAT showed a sfGFP reporter fluorescence of 0.52 ± 0.048. Work on KNATHR yielded a sfGFP reporter fluorescence of 0.412 ± 0.041. With KNATHT the sfGFP reporter fluorescence was 0.443 ± 0.015. Variant DFAVEP has a sfGFP reporter fluorescence of 0.0531 ± 0.0031. DFAVET showed a sfGFP reporter fluorescence of 0.051 ± 0.0039. DFAVER showed a sfGFP reporter fluorescence of 0.0506 ± 0.0017. With DFIVAT the sfGFP reporter fluorescence was 0.0992 ± 0.004. For DIAKAR, the sfGFP reporter fluorescence was 0.0673 ± 0.0063. Work on DIAKAT yielded a sfGFP reporter fluorescence of 0.0683 ± 0.0046. Work on DIITET yielded a sfGFP reporter fluorescence of 0.0535 ± 0.002. With DIITER the sfGFP reporter fluorescence was 0.0576 ± 0.0022. Work on KNATER yielded a sfGFP reporter fluorescence of 0.343 ± 0.014. For KNATEP, the sfGFP reporter fluorescence was 0.279 ± 0.052. For KNATET, the sfGFP reporter fluorescence was 0.324 ± 0.017. In the case of DIATAR, the sfGFP reporter fluorescence is reported as 0.0781 ± 0.014. For DIATAP, the sfGFP reporter fluorescence was 0.087 ± 0.01. Variant DIATAT has a sfGFP reporter fluorescence of 0.112 ± 0.0062. Variant KIITAT has a sfGFP reporter fluorescence of 0.39 ± 0.032. In the case of KIITAP, the sfGFP reporter fluorescence is reported as 0.308 ± 0.022. With KFIVET the sfGFP reporter fluorescence was 0.453 ± 0.057. Work on KFIVER yielded a sfGFP reporter fluorescence of 0.491 ± 0.0094. For KFIVEP, the sfGFP reporter fluorescence was 0.567 ± 0.017. In the case of KFAVHT, the sfGFP reporter fluorescence is reported as 0.632 ± 0.071. In the case of KFAVHP, the sfGFP reporter fluorescence is reported as 0.656 ± 0.07. For KFAVHR, the sfGFP reporter fluorescence was 0.631 ± 0.038. With KFIVHT the sfGFP reporter fluorescence was 0.7 ± 0.038. With KNITAT the sfGFP reporter fluorescence was 0.358 ± 0.021. Work on KNITAR yielded a sfGFP reporter fluorescence of 0.379 ± 0.032. In the case of KIAVER, the sfGFP reporter fluorescence is reported as 0.946 ± 0.087. With KIAVET the sfGFP reporter fluorescence was 1.21 ± 0.013. With KIAVEP the sfGFP reporter fluorescence was 0.997 ± 0.055.

Same assay, conditions: library round: Round 3b; ligand: 30 µM Zn
Variant KIAKEP has a sfGFP reporter fluorescence of 0.051 ± 0.0007. With KIAKER the sfGFP reporter fluorescence was 0.0592 ± 0.0041. In the case of KIAKET, the sfGFP reporter fluorescence is reported as 0.057 ± 0.0063. Variant KIATHT has a sfGFP reporter fluorescence of 0.112 ± 0.0078. Variant KIATHR has a sfGFP reporter fluorescence of 0.0963 ± 0.013. Variant KIATHP has a sfGFP reporter fluorescence of 0.0972 ± 0.014. Variant DFAKAR has a sfGFP reporter fluorescence of 0.0435 ± 0.0051. In the case of DFAKAT, the sfGFP reporter fluorescence is reported as 0.04614 ± 0.00019. Variant DNAVAT has a sfGFP reporter fluorescence of 0.0637 ± 0.0046. In the case of DNAVAR, the sfGFP reporter fluorescence is reported as 0.0579 ± 0.0046. Work on KIITHT yielded a sfGFP reporter fluorescence of 0.0728 ± 0.0057. In the case of KIITHR, the sfGFP reporter fluorescence is reported as 0.0734 ± 0.0022. KIIVHT showed a sfGFP reporter fluorescence of 0.101 ± 0.015. With KNIVAT the sfGFP reporter fluorescence was 1.42 ± 0.2. KNATHR gave a sfGFP reporter fluorescence of 0.602 ± 0.08. With KNATHT the sfGFP reporter fluorescence was 0.764 ± 0.13. DFAVEP gave a sfGFP reporter fluorescence of 0.0466 ± 0.0044. Variant DFAVET has a sfGFP reporter fluorescence of 0.0469 ± 0.00097. DFAVER showed a sfGFP reporter fluorescence of 0.0474 ± 0.0015. Variant DFIVAT has a sfGFP reporter fluorescence of 0.0496 ± 0.0011. With DIAKAR the sfGFP reporter fluorescence was 0.045 ± 0.0015. In the case of DIAKAT, the sfGFP reporter fluorescence is reported as 0.0346. DIITET showed a sfGFP reporter fluorescence of 0.047 ± 0.0035. In the case of DIITER, the sfGFP reporter fluorescence is reported as 0.0446 ± 0.0022. Variant KNATER has a sfGFP reporter fluorescence of 0.336 ± 0.035. KNATEP gave a sfGFP reporter fluorescence of 0.261 ± 0.015. Variant KNATET has a sfGFP reporter fluorescence of 0.34 ± 0.031. With DIATAR the sfGFP reporter fluorescence was 0.0423 ± 0.0034. Variant DIATAP has a sfGFP reporter fluorescence of 0.0433 ± 0.0057. DIATAT showed a sfGFP reporter fluorescence of 0.0458 ± 0.00085. Work on KIITAT yielded a sfGFP reporter fluorescence of 0.05466 ± 0.00019. In the case of KIITAP, the sfGFP reporter fluorescence is reported as 0.051 ± 0.005. Work on KFIVET yielded a sfGFP reporter fluorescence of 0.094 ± 0.006. KFIVER showed a sfGFP reporter fluorescence of 0.0916 ± 0.0098. With KFIVEP the sfGFP reporter fluorescence was 0.107 ± 0.013. In the case of KFAVHT, the sfGFP reporter fluorescence is reported as 0.179 ± 0.029. For KFAVHP, the sfGFP reporter fluorescence was 0.198 ± 0.014. Variant KFAVHR has a sfGFP reporter fluorescence of 0.171 ± 0.017. For KFIVHT, the sfGFP reporter fluorescence was 0.365 ± 0.038. In the case of KNITAT, the sfGFP reporter fluorescence is reported as 0.972 ± 0.077. In the case of KNITAR, the sfGFP reporter fluorescence is reported as 1.07 ± 0.19. KIAVER gave a sfGFP reporter fluorescence of 0.0548 ± 0.002. Variant KIAVET has a sfGFP reporter fluorescence of 0.0607 ± 0.0027. Variant KIAVEP has a sfGFP reporter fluorescence of 0.0578 ± 0.0022.
